Data taken from publication PMC7363588, “Mapping of the FGF14:Nav1.6 complex interface reveals FLPK as a functionally active peptide modulating excitability” (Physiological Reports, 2020).

B1: CLuc-FGF14 [human] / CD4-Nav1.6 C-tail-NLuc [human] (parent)
chain 1: MVKPVPLFRRTDFKLLLCNHKDLFFLRVSKLLDCFSPKSMWFLWNIFSKGTHMLQCLCGKSLKKNKNPTDPQLKGIVTRLYCRQGYYLQMHPDGALDGTKDDSTNSTLFNLIPVGLRVVAIQGVKTGLYIAMNGEGYLYPSELFTPECKFKESVFENYYVIYSSMLYRQQESGRAWFLGLNKEGQAMKGNRVKKTKPAAHFLPKPLEVAMYREPSLHDVGETVPKPGVTPSKSTSASAIMNGGKPVNKSKTT
chain 2: IVVNMYIAIILENFSVATEESADPLSEDDFETFYEIWEKFDPDATQFIEYCKLADFADALEHPLRVPKPNTIELIAMDLPMVSGDRIHCLDILFAFTKRVLGDSGELDILRQQMEERFVASNPSKVSYEPITTTLRRKQEEVSAVVLQRAYRGHLARRGFICKKTTSNKLENGGTHREKKESTPSTASLPSYDSVTKPEKEKQQRAEEGRRERAKRQKEVRESKC

Variants of: B1
Assay: split-luciferase complementation assay (LCA) in HEK293 cells
Settings: with CD4-Nav1.6 C-tail-NLuc [human], DMSO vehicle control of the same pair = 100, read off a plot

A screen value (% Luminescence (RLU)) (EYYV peptide 50 µM present) of 100, a screen value (% Luminescence (RLU)) (FLPK peptide 50 µM present) of 87 and a screen value (% Luminescence (RLU)) (PLEV peptide 50 µM present) of 110 were found for chain 1 Y158A in this work.

A screen value (% Luminescence (RLU)) (EYYV peptide 50 µM present) of 100, a screen value (% Luminescence (RLU)) (FLPK peptide 50 µM present) of 99 and a screen value (% Luminescence (RLU)) (PLEV peptide 50 µM present) of 110 were found for chain 1 Y158A V160A in this work.

A screen value (% Luminescence (RLU)) (EYYV peptide 50 µM present) of 79, a screen value (% Luminescence (RLU)) (FLPK peptide 50 µM present) of 100 and a screen value (% Luminescence (RLU)) (PLEV peptide 50 µM present) of 72 were found for chain 1 Y158N V160N in this work.

A screen value (% Luminescence (RLU)) (EYYV peptide 50 µM present) of 93, a screen value (% Luminescence (RLU)) (FLPK peptide 50 µM present) of 91 and a screen value (% Luminescence (RLU)) (PLEV peptide 50 µM present) of 94 were found for chain 1 V160A in this work.
